According to patent US20180311371A1 (Hoffmann-La Roche, published 2018):

Legend:
[1] = target: T1, human TPBG (trophoblast glycoprotein), full length, cell surface expressed (human, UniProt Q13641 32-420); test: cell-based or functional assay
T1 sequence: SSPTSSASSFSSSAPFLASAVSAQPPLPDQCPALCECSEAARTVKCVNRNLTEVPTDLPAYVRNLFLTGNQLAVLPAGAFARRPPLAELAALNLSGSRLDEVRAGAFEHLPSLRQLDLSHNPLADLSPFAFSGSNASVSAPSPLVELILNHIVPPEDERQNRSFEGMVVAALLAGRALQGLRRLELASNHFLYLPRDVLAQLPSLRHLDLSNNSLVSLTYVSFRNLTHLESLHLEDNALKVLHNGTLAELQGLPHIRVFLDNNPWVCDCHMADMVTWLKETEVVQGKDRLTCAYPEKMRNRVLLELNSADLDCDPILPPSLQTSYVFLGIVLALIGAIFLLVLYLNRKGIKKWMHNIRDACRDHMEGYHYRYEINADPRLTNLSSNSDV

[2] = target: T1, human TPBG (trophoblast glycoprotein), …; test: cell-based or functional assay; remark: listed apart in the source
[3] = target: T2, huTPBG (recombinant human TPBG immobilised on the Biacore chip) (human, UniProt Q13641 32-355, limits assumed); test: SPR Biacore T200; huTPBG amine-coupled, Fab injected
T2 construct: also called human TPBG antigen
T2 sequence: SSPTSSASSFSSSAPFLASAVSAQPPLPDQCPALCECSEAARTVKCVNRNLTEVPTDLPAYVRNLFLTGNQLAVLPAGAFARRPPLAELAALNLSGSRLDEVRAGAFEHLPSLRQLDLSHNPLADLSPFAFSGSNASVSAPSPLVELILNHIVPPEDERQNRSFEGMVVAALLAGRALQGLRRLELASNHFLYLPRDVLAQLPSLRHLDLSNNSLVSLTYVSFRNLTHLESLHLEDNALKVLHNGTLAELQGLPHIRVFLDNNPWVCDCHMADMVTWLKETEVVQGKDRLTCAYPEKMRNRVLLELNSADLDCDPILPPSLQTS

[4] = target: T1, human TPBG (trophoblast glycoprotein), …; test: flow cytometry on SW620 clone 4 cells; ratio of MFI; replicate 2
[5] = target: T3, human TPBG extracellular domain, His6Avi, biotinylated (human, biotinylated); test: ELISA; biotinylated TPBG-AviHis on streptavidin plate; Fab titrated from 2 µg/ml
T3 construct: also called huTPBG; human TPBG-AviHis
T3 chain: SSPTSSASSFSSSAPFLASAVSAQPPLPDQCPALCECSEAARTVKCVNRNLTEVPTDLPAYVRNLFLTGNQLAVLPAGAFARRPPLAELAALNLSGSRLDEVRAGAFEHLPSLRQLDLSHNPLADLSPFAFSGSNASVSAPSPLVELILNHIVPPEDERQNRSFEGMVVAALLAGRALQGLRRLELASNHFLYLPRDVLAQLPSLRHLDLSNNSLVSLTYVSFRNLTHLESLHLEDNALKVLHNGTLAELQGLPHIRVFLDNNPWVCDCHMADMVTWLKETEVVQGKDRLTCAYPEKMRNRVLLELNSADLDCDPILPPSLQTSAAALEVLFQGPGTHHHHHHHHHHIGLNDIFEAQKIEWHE

B1: anti-TPBG antibody 091, Fab fragment (Fab, V domains shown)
VH: EVHLLESGGGLVHPGGSLRLSCAASGFTFRSDAMHWVRQAPGKGLEWVSGVSGSGGSPYYADSVKGRFTISRDDSKTTLYLQMNSLRAEDTAVYYCATGGSIAGSYYYYPMDVWGQGTTVTVSS
VL: DIQMTQSPSSLSASVGDRVTITCQASQDISNYLNWYQQKPGKAPKLLIYAASTLQIGVPSRFSGSGSGTDFTFTISSLQPEDFATYYCQQANSFPLTFGGGTKVEIK
notes: also called Fab2
[1]
  EC50 cytotoxicity, Fab-PE sandwich construct, MCF7: 0.414 nM
  X-fold higher potency compared to TPBG(H8)PE, MCF7, first experiment: 3 fold
  X-fold higher potency compared to TPBG(H8)PE, MCF7, second experiment: 2.7 fold
[2]
  EC50 cytotoxicity, Fab-PE sandwich construct, H1975, replicate 1: 0.166 nM
  EC50 cytotoxicity, Fab-PE sandwich construct, H1975, replicate 2: 0.129 nM
  EC50 cytotoxicity, Fab-PE sandwich construct, H1975, replicate 3: 0.182 nM
[3]
  Kd: 0.0558 nM
  koff: 2.72e-05 s⁻¹
  kon: 487000 M⁻¹ s⁻¹
[4]
  Fold change pH 7.2 vs pH 5.5: 1 fold
[5]
  EC50: 0.0277 µg/mL
